The supplement of paper PMC6757056
± gives the standard deviation of the averaged measurements.

B1: library; a variant is named by its letters at N, in order (parent)
chain: GCUGUCACCGGUGCUUGGUACGUUAUAUUCAGCCGGUCUGAUGAGUCUNNNNNNAGACGAAACAGC

Assays:
(6R,S)-folinic acid [1] = variants of: B1; assay: normalized RNA/DNA level without ligand (relative to sTRSVctl = 100) (log10 (% of sTRSVctl)); HEK293T overexpressing SLC46A1; higher = less ribozyme self-cleavage, higher mRNA level; settings: without (6R,S)-folinic acid; ligand present: no
How it was run: (§1)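 Library plasmids carrying ribozyme switches linked to mCherry, or to eGFP in some ligand experiments, were transfected into HEK293T at 4 µg per 6-well well, with any ligand added 1 h earlier. Seventy-two hours on, total RNA was extracted with EDTA and reverse-transcribed, amplified, barcoded and sequenced. RNA level was RNA over DNA reads normalized to a spiked-in non-cleaving sequence or to the top sequences, then scaled and log-transformed. The top set was 25 sequences, the transform was ×100 and log10, and sequences needed ≥100 DNA reads.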

(6R,S)-folinic acid [2] = variants of: B1; assay: normalized RNA/DNA level with ligand (relative to sTRSVctl = 100) (log10 (% of sTRSVctl)); HEK293T overexpressing SLC46A1; ligand concentration (+) RNA-Seq: 6 mM; higher = less ribozyme self-cleavage, higher mRNA level; settings: with (6R,S)-folinic acid; ligand present: yes
How it was run: as §1

Variant	normalized RNA/DNA level without ligand (log10) ((6R,S)-folinic acid [1])	normalized RNA/DNA level with ligand (log10) ((6R,S)-folinic acid [2])
CACUAU	1.962 ± 0.0042	2.01 ± 0.03
CACUAA	1.961 ± 0.01	2.0172 ± 0.0006
CACGAG	1.917 ± 0.0095	2.003 ± 0.007
CACGAC	2.02 ± 0.023	2.02 ± 0.032
CACGAA	1.956 ± 0.0025	1.94 ± 0.039
GAAUAG	1.9357 ± 0.0015	2.01 ± 0.042
GAAUAU	2.038 ± 0.015	2.02 ± 0.051
AAAGCC	2.03 ± 0.013	2.05 ± 0.028
AAAGCU	2.003 ± 0.018	2.013 ± 0.013
CACAAC	2.004 ± 0.016	1.99 ± 0.05
CACAAU	1.954 ± 0.018	1.99 ± 0.057
CACAAG	1.961 ± 0.006	2.013 ± 0.02
CACCGA	2.021 ± 0.0036	2.04 ± 0.04
CACCGC	2.047 ± 0.0053	2.04 ± 0.034
CACCGU	2.02 ± 0.023	2.03 ± 0.033
CACCGG	1.9715 ± 0.00014	2.01 ± 0.0069
UAAUUA	1.991 ± 0.0035	2.01 ± 0.048
UAAUUU	1.979 ± 0.0057	2.01 ± 0.032
UAAUUC	2.01 ± 0.027	2.02 ± 0.031
GACCGC	2.0652 ± 0.00035	2.018 ± 0.011
GACCGG	2.08 ± 0.053	2.0517 ± 0.0019
GACCGU	2.03 ± 0.029	2.01 ± 0.023
GACCGA	2.09 ± 0.0085	2.033 ± 0.011
UACAGC	1.991 ± 0.0074	2.02 ± 0.05
GAAUCU	2.011 ± 0.0071	2.04 ± 0.037
GAAUCC	2.023 ± 0.0051	2.02 ± 0.061
GAACCC	2.02 ± 0.018	2.017 ± 0.0044
GAACCA	2.0209 ± 0.0019	2.01 ± 0.037
GAACCG	2.018 ± 0.017	2.03 ± 0.038
